Assay results taken from US6790444.

T1: human lymphotoxin (TNFβ) (human, UniProt P01374 35-205, limits assumed)
T1 sequence (looked up): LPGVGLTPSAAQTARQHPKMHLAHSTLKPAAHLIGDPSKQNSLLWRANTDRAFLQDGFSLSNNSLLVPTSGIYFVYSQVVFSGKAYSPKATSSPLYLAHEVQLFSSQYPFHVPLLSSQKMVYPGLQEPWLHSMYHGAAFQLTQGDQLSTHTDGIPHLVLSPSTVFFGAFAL


Experiments:
human lymphotoxin (TNFβ) = molecular target: T1, human lymphotoxin (TNFβ); test: cell-based or functional assay
[1] = molecular target: human tumor necrosis factor-α (TNFα) (human) (UniProt P01375); test: cell-based or functional assay
Sequence of human tumor necrosis factor-α (TNFα) (human) (P01375 77-233): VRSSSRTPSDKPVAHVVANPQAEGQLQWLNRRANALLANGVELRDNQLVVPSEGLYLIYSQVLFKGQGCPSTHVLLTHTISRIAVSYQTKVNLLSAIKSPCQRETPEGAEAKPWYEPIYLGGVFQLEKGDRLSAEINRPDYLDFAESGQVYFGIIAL

Sequence of p55-sf2 (p55 TNF receptor / IgG1 heavy chain single fusion with truncated light chain JCK) (P19438 other isoform, or with tags, fused parts or gaps): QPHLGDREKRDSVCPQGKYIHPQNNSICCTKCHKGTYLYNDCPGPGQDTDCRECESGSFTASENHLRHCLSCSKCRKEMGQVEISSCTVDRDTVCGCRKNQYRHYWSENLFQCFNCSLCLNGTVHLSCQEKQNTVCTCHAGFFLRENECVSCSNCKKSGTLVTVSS

Molecule	amount needed for the same degree of inhibition of TNFβ cytotoxicity, against p75P-sf2 (human lymphotoxin (TNFβ)) [fold]	IL-6 secreted by FS-4 fibroblasts; 0.3 ng/ml rhTNF, 4 µg/ml antibody [1] [ng/mL]	IL-6 secreted by FS-4 fibroblasts; 1.5 ng/ml rhTNF, 4 µg/ml antibody [1] [ng/mL]	IL-6 secreted by FS-4 fibroblasts; 7.5 ng/ml rhTNF, 4 µg/ml antibody [1] [ng/mL]
p55-sf2 (p55 TNF receptor / IgG1 heavy chain single fusion with truncated light chain JCK) (from UniProt P19438 32-188) (Fc fusion)	3			
chimeric mouse/human IgG1 anti-platelet mAb (7E3) (antibody, INN chains, looked up, V domains shown, chimeric IgG1) VH: EVQLQQSGTVLARPGASVKMSCEASGYTFTNYWMHWVKQRPGQGLEWIGAIYPGNSDTSYIQKFKGKAKLTAVTSTTSVYMELSSLTNEDSAVYYCTLYDGYYVFAYWGQGTLVTVSA VL: EIVLTQSPVTLSVTPGDSVSLSCRASRDISNNLHWFQQTSHESPRLLIKYASQSMSGIPSRFSGSGSGTDFTLSINSVETEDFGMYFCQQTNSWPYTFGGGTKLEIK		1.6	1.96	2.16
p75-sf2 (complete p75 extracellular domain fused to the IgG1 heavy chain) (Fc fusion) QLPAQVAFTPYAPEPGSTCRLREYYDQTAQMCCSKCSPGQHAKVFCTKTSDTVCDSCEDSTYTQLWNWVPECLSCGSRCSSDQVETQACTREQNRICTCRPGWYCALSKQEGCRLCAPLRKCRPGFGVARPGTETSDVVCKPCAPGTFSNTTSSTDICRPHQICNVVAIPGNASMDAVCTSTSPTRSMAPGAVHLPQPVSTRSQHTQPTPEPSTAPSTSFLLPMGPSPPAEGSTGDGTLVTVSS	3			
